What was measured:
[1] = substrate: Nc1ncnc2c1ncn2[C@H]1C[C@H](O)[C@@H](COP(=O)(O)OP(=O)(O)OP(=O)(O)O)O1; test: Spectrophotometric assay coupled to xanthine oxidase, dATP + C ⇄ dCTP + A; type: biochemical, Lactobacillus leichmannii; details: other: PDTT4, 1 mM cytosine, 50 mM MES pH6.0, 37° C., pH 6.0
Description: Further, the cinetic parameters of these mutant enzymes were analysed, using a specific spectrophotometric assay. Briefly, the assay consists in measuring the formation of the final product (2,8 dihydroxyadenine) of the reaction:
Briefly, the assay was performed using the coupling of two enzymes: the variant (PDTT2, PDTT4, PDTT5, PDTT6, or PDTT7) to be tested and xanthine oxidase (obtained from Roche). The reaction mixture contained varying concentrations of dATP, 1 mM cytosine in a 50 mM MES buffer pH6.0 at 37° C. The reaction was initiated by adding 30 units of the purified variant to be tested and xanthine oxidase (Roche). The released adenine was then oxidized in 2,8-dihydroxyadenine which absorbs at 301 nm. The formation (i.e. concentration) of 2,8 dihydroxyadenine was measured by spectrophotometry.

[2] = Catalytic activity of PDTT2 to PDTT7, dATP formed (HPLC); type: biochemical; details: dCTP + A ⇄ dATP + C; 2 mM dCTP, 1 mM Adenine, 37° C., MES 50 mM pH6.0
Description: In specific cases, an alternative protocol was used to perform the enzyme assay. In this second protocol, the dNxP (dNMP, or dNDP or dNTP) concentration was of only 2 mM, instead of 3 mM. All of the other conditions were identical to those of the first protocol.
The catalytic activity of the mutant enzymes PDTT2, PDTT3, PDTT3b, PDTT4, PDTT5, PDTT6, PDTT7 has been compared. Briefly, a sufficient amount of enzyme mutant necessary to obtain a linear reaction over a period of one hour at 37° C. has been mixed in 2 mM dCTP and 1 mM Adenine in a final volume of 50 μL of MES buffer 50 mM pH6.0. Assays were incubated for 60 min at 37° C. The products of the reactions were analyzed each 7 min by Rapid resolution high performance liquid chromatography using a reverse-phase column (ZORBAX Eclipse XDB-C18 2.1*50 mm […]) with a flow rate of 0.25 ml/min and a linear gradient of 1-12% CH3CN (2-25% CH3CN or 1-90% CH3CN) in 20 mM triethylammonium acetate, pH 7.5, buffer for 7 min.

[3] = In vitro synthesis of deoxynucleotide analogues: specific activities; type: biochemical
Description: (§1) The standard assay (“first protocol for enzyme assay”) for the different NDTs consisted of 5-15 μg of NDT in 50 mM MES buffer pH 6.0, dNxP (dNMP, or dNDP or dNTP) 3 mM and a base 1 mM in a total volume of 50 μL. Assays were incubated for 60 min at 37° C. The products of the reactions were analyzed each 7 min by Rapid resolution high performance liquid chromatography using a reverse-phase column (ZORBAX Eclipse XDB-C18 2.1*50 mm 1.8 μM) with a flow rate of 0.25 ml/min and a linear gradient of 1-12% CH3CN (2-25% CH3CN or 1-90% CH3CN) in 20 mM triethylammonium acetate, pH 7.5, buffer for 7 min. The low resolution mass spectra of the newly synthesized deoxyribonucleotides were obtained on an Agilent 1200 series LC/MS 6120 quadrupole system using an atmospheric electrospray ionization system.
The donor concentration was 3 mM and the acceptor 1 mM except for dCTP 2 mM 5-BrU 1 mM and dAMP 2 mM 5-FU 1 mM. Activities are expressed in nanomoles of deoxynucleotides synthesized per min per mg of protein.

[4] = Standard enzyme assay (HPLC): specific activities of PDT variants with natural purines and pyrimidines; type: biochemical; details: donor 3 mM, acceptor 1 mM
Description: as §1
Unless specifically mentioned, the results presented hereafter have been obtained by using the first protocol for performing the enzyme assay.

B1: Lactobacillus leichmannii nucleoside deoxyribosyltransferase (NDT, SEQ ID NO:1) variant PDTT4, R13 Q91 G92 S93 S123 K157 (F13R/E91Q/D92G/V93S/N123S/Y157K), SEQ … (protein)
chain: MPKKTIYFGAGWRTDRQNKAYKEAMEALKENPTIDLENSYVPLDNQYKGIRVDEHPEYLHDKVWATATYNNDLNGIKTNDIMLGVYIPDEQGSGLGMELGYALSQGKYVLLVIPDEDYGKPISLMSWGVSDNVIKMSQLKDFNFNKPRFDFYEGAVK
notes: xanthine oxidase is coupling enzyme only
With B1 the Km [1] was 2300 µM, the kcat [1] was 8.8 s⁻¹ and the kcat/Km [1] was 3800 M⁻¹ s⁻¹.

B2: PDTT3: PDTT2 mutant with Proline at position 93 and Lysine at position 157, SEQ ID NO:38 (protein)
chain: MPKKTIYFGAGWRTDRQNKAYKEAMEALKENPTIDLENSYVPLDNQYKGIRVDEHPEYLHDKVWATATYNNDLNGIKTNDIMLGVYIPDEQGPGLGMELGYALSQGKYVLLVIPDEDYGKPISLMSWGVSDNVIKMSQLKDFNFNKPRFDFYEGAVK
modifications: amino acid sequence of PDTT3 (G92/S123/R13/P93/K157/Q91)
For B2, the “Catalytic activity (nmol of dATP formed/min/mg of enzyme protein)” value [2] was 2.7 nmol of dATP formed/min/mg of enzyme protein.

B3: PDTT5: PDTT3 mutant with Arginine at position 157, SEQ ID NO:41 (protein)
chain: MPKKTIYFGAGWRTDRQNKAYKEAMEALKENPTIDLENSYVPLDNQYKGIRVDEHPEYLHDKVWATATYNNDLNGIKTNDIMLGVYIPDEQGPGLGMELGYALSQGKYVLLVIPDEDYGKPISLMSWGVSDNVIKMSQLKDFNFNKPRFDFYEGAVR
modifications: amino acid sequence of PDTT5 (G92/S123/R13/P93/R157/Q91)
In the case of B3, the “Catalytic activity (nmol of dATP formed/min/mg of enzyme protein)” value [2] is reported as 27 nmol of dATP formed/min/mg of enzyme protein.

B4: PDTT3b: PDTT2 mutant with Glycine (G) at position 93 and Lysine at position 157, SEQ ID NO:39 (protein)
chain: MPKKTIYFGAGWRTDRQNKAYKEAMEALKENPTIDLENSYVPLDNQYKGIRVDEHPEYLHDKVWATATYNNDLNGIKTNDIMLGVYIPDEQGGGLGMELGYALSQGKYVLLVIPDEDYGKPISLMSWGVSDNVIKMSQLKDFNFNKPRFDFYEGAVK
modifications: amino acid sequence of PDTT3b (G92/S123/R13/G93/K157/Q91)
For B4, the “Catalytic activity (nmol of dATP formed/min/mg of enzyme protein)” value [2] was 6.5 nmol of dATP formed/min/mg of enzyme protein.

B5: PDTT2: NDT mutant R13 Q91 G92 T93 S123, SEQ ID NO:10 (protein)
chain: MPKKTIYFGAGWRTDRQNKAYKEAMEALKENPTIDLENSYVPLDNQYKGIRVDEHPEYLHDKVWATATYNNDLNGIKTNDIMLGVYIPDEQGTGLGMELGYALSQGKYVLLVIPDEDYGKPISLMSWGVSDNVIKMSQLKDFNFNKPRFDFYEGAVY
modifications: PDTT2 enzyme mutant
In the case of B5, the Specific activity ([3]; dAMP + 5-FU → A + 5-F-dUMP, dAMP 2 mM 5-FU 1 mM) is reported as 48.4 nanomoles of deoxynucleotides synthesized per min per mg of protein, the Specific activity ([3]; dCMP + 2,6-D → C + 2,6-DMP, donor 3 mM, acceptor 1 mM) is reported as 95.8 nanomoles of deoxynucleotides synthesized per min per mg of protein and the Specific activity ([3]; dCMP + 2,6-chloropurine → C + 2,6-dichloropurine 2′-deoxyribose 5′-monophosphate, donor 3 mM, acceptor 1 mM) is reported as 37 nanomoles of deoxynucleotides synthesized per min per mg of protein. The Specific activity ([3]; dCMP + 5-BrU → C + 5-Br-dUMP, donor 3 mM, acceptor 1 mM) was 10.7 nanomoles of deoxynucleotides synthesized per min per mg of protein, the Specific activity ([3]; dCMP + 6-chloropurine → C + 6-chloropurine 2′-deoxyribose 5′-monophosphate, donor 3 mM, acceptor 1 mM) was 75 nanomoles of deoxynucleotides synthesized per min per mg of protein and the Specific activity ([3]; dCTP + 2,6-D → C + 2,6-DTP, donor 3 mM, acceptor 1 mM) was 17 nanomoles of deoxynucleotides synthesized per min per mg of protein. For the same molecule, the Specific activity ([3]; dCTP + 2,6-chloropurine → C + 2,6-dichloropurine 2′-deoxyribose 5′-triphosphate, donor 3 mM, acceptor 1 mM) was 14 nanomoles of deoxynucleotides synthesized per min per mg of protein, the Specific activity ([3]; dCTP + 5-BrU → C +5-Br-dUTP, dCTP 2 mM 5-BrU 1 mM) was 12 nanomoles of deoxynucleotides synthesized per min per mg of protein and the Specific activity ([3]; dCTP + 5-FU → C + 5-F-dUTP, donor 3 mM, acceptor 1 mM) was 39.4 nanomoles of deoxynucleotides synthesized per min per mg of protein. For the same molecule, the Specific activity ([3]; dCTP + 6-chloropurine → C + 6-chloropurine 2′-deoxyribose 5′-triphosphate, donor 3 mM, acceptor 1 mM) was 15 nanomoles of deoxynucleotides synthesized per min per mg of protein, the Specific activity ([3]; dCTPαS + A → C + dATPαS, donor 3 mM, acceptor 1 mM) was 54 nanomoles of deoxynucleotides synthesized per min per mg of protein and the Specific activity ([4]; dADP + C ⇄ dCDP + A) was 8 nanomoles of deoxynucleotides synthesized per min per mg of protein. For the same molecule, the Specific activity ([4]; dADP + Hx ⇄ dIDP + A) was <0.1 nanomoles of deoxynucleotides synthesized per min per mg of protein, the Specific activity ([4]; dAMP + C ⇄ dCMP + A) was 31 nanomoles of deoxynucleotides synthesized per min per mg of protein and the Specific activity ([4]; dAMP + Hx ⇄ dIMP + A) was <0.1 nanomoles of deoxynucleotides synthesized per min per mg of protein. The Specific activity ([4]; dATP + C ⇄ dCTP + A) was 15 nanomoles of deoxynucleotides synthesized per min per mg of protein, the Specific activity ([4]; dATP + Hx ⇄ dITP + A) was <0.1 nanomoles of deoxynucleotides synthesized per min per mg of protein and the Specific activity ([4]; dCDP + A ⇄ dADP + C) was 66 nanomoles of deoxynucleotides synthesized per min per mg of protein. The Specific activity ([4]; dCDP + U ⇄ dUDP + C (U used as acceptor base instead of T)) was 8 nanomoles of deoxynucleotides synthesized per min per mg of protein, the Specific activity ([4]; dCMP + A ⇄ dAMP + C) was 286 nanomoles of deoxynucleotides synthesized per min per mg of protein and the Specific activity ([4]; dCMP + T ⇄ dTMP + C) was 1.1 nanomoles of deoxynucleotides synthesized per min per mg of protein. For the same molecule, the Specific activity ([4]; dCTP + A ⇄ dATP + C) was 51 nanomoles of deoxynucleotides synthesized per min per mg of protein, the Specific activity ([4]; dCTP + T ⇄ dTTP + C) was 1.4 nanomoles of deoxynucleotides synthesized per min per mg of protein and the Specific activity ([4]; dGDP + A ⇄ dADP + G) was 33 nanomoles of deoxynucleotides synthesized per min per mg of protein. For the same molecule, the Specific activity ([4]; dGMP + A ⇄ dAMP + G) was 50 nanomoles of deoxynucleotides synthesized per min per mg of protein, the Specific activity ([4]; dGTP + A ⇄ dATP + G) was 36 nanomoles of deoxynucleotides synthesized per min per mg of protein and the “Catalytic activity (nmol of dATP formed/min/mg of enzyme protein)” value [2] was 9.6 nmol of dATP formed/min/mg of enzyme protein.

B6: PDTT4: PDTT2 mutant with Serine at position 93 and Lysine at position 157, SEQ ID NO:40 (protein)
chain: MPKKTIYFGAGWRTDRQNKAYKEAMEALKENPTIDLENSYVPLDNQYKGIRVDEHPEYLHDKVWATATYNNDLNGIKTNDIMLGVYIPDEQGSGLGMELGYALSQGKYVLLVIPDEDYGKPISLMSWGVSDNVIKMSQLKDFNFNKPRFDFYEGAVK
modifications: amino acid sequence of PDTT4 (G92/S123/R13/S93/K157/Q91)
For B6, the “Catalytic activity (nmol of dATP formed/min/mg of enzyme protein)” value [2] was 10.4 nmol of dATP formed/min/mg of enzyme protein.

— patent US9523084B2, “Phosphodeoxyribosyl transferase mutant enzymes and uses thereof” (Centre National De La Recherche Scientifique, priority 2012, dated 2016)
